Experimental data as given in doi:10.1101/2020.03.10.985002.

T1: HY5 (UniProt O24646 1-168)
T1 sequence: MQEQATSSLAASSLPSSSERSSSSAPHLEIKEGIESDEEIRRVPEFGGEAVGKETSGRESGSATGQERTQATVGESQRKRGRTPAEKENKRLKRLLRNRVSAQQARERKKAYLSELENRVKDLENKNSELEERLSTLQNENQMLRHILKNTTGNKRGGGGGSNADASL

B1: G-box cold competitor (GbH5) (dsDNA)
DNA 1: GTTCTAGTGTATCAGACACGTGTCGACAAACTGGTGG
DNA 2: CCACCAGTTTGTCGACACGTGTCTGATACACTAGAA
B2: PAP8 promoter box probe (oP8Box) (dsDNA)
DNA 1: GGATACCAAAAATGACGCTCTTAATTATTTCC
DNA 2: GGAAATAATTAAGAGCGTCATTTTTGGTATCC

Legend:
HY5 [1] = target: T1, HY5; assay: competition
HY5 [2] = target: T1, HY5; assay: EMSA

Binder	binding result (HY5 [1])	binding result (HY5 [2])
B1	binds	
B2		binds
